Here are results for 22 molecules from patent US20070128190A1 (GLENMARK PHARMACEUTICALS S A, published 2007).

Positions count from the first letter of the chain named. Numbers in names are those of the source. Like-named read-outs stand apart in the source and are kept apart here.

The target in one assay is T1, TMC-2206.
T1 construct: murine IgG1/κ secreted by hybridoma BHA2.1; labelled with Eu-N1-ITC where used as tracer; also called BHA2.1
As to the kind of experiment: fusion protein competing Eu-TMC-2206 off α2β1-coated plate.

Assay [1] addresses T2, human α2 integrin with endogenous hamster β1 on CHO cells (human; hamster). As to the kind of experiment: cell-based or functional assay.
Assay [2] concerns the target T3, human platelet α2β1 integrin (immobilized on microtiter plates) (human, UniProt P17301 30-1181; P05556 21-798).
T3 construct: plates custom-coated with human platelet α2β1 by GTI Inc; also called immobilized α2β1 integrin; α2β1-coated plates
As to the kind of experiment: competition with Eu-TMC-2206 on human platelet α2β1-coated plate. The method, then:
(§1) Each labeled antibody mixture was applied to a separate PD-10 column (GE Biosciences, Piscataway, N.J.) pre-equilibrated with Running Buffer (50 mM Tris, pH 7.4 and 138 mM NaCl). Fractions (0.5 mL) were collected and assayed for total protein (Bradford reagent; Bio-Rad Laboratories, Hercules, Calif.) using a SpectraMax 384 absorbance plate reader and for europium after 1:10.000 dilution in DELFIA Enhancement Solution (Perkin-Elmer) by time-resolved fluorescence (TRF) using a Victor2 multi-label plate reader (Perkin Elmer). The fractions that were positive for both protein and Eu label were pooled and applied to new PD-10 columns and samples collected and assayed for total protein and for europium content by TRF calibrated against a europium standard solution (Perkin-Elmer) to calculate the fluor: protein ratio. […] After incubating the sealed plates for 1 hr at 37° C. to allow binding to reach equilibrium, 2 μL samples were transferred from each well into a fresh well containing DELFIA Enhancement Solution (100 μL/well; Perkin-Elmer) for the measurement of free (unbound) label. Enhancement Solution (100 μL/well) was added to the emptied wells for the measurement of bound label. The plate was shaken (Titer Plate Shaker speed setting of 5 for 5 minutes at room temperature) and time-resolved fluorescent (TRF) intensities were read using a Victor2 multi-label plate reader (Perkin-Elmer Wallac, Boston, Mas.).

For assay [3], the target named is T3, human platelet α2β1 integrin …. The description is as above. On the procedure:
Exemplary IgG1 antibodies have a hVH 14.0 γ heavy chain (SEQ ID NO:181) or a hVH12.0 γ1 heavy chain (SEQ ID NO:182) and a hVL10.0Q light chain (SEQ ID NO:178). Exemplary IgG4 antibodies have a hVH14.0 γ4 heavy chain (SEQ ID NO:174) or a hVH12.0 γ4 heavy chain (SEQ ID NO:176) and a hVL 10.0Q light chain (SEQ ID NO:178). Purified antibodies were tested in the competition assay to compare potency by Kᵢ values as well as in the cell adhesion to collagen assay, where potency is measured as EC₅₀ values.
The source holds these as a separate data set.

Assay [4] shares this target. The assay is described as above. The source holds these as a separate data set.
Assay [5] has the same target. The assay is described as above. On the procedure: as §1
The source holds these as a separate data set.

Assay [6] addresses T2, human α2 integrin with endogenous …. Put plainly: cell-based or functional assay. This is another data set of the same source.

B1: GST-hα2 I domain R165D (other)
chain: GSSPDFQLSASFSPATQPCPSLIDVVVVCDESNSIYPWDAVKNFLEKFVQGLDIGPTKTQVGLIQYANNPRVVFNLNTYKTKEEMIVATSQTSQYGGDLTNTFGAIQYARKYAYSAASGGRRSATKVMVVVTDGESHDGSMLKAVIDQCNHDNILRFGIAVLGYLNDNALDTKNLIKEIKAIASIPTERYFFNVSDEAALLEKAGTLGEQIFSIEGTVEFIVTD
notes: same construct as m41; not shown: GST carrier with the pGEX-2TK vector linker at the N end
The Ki is a measure of affinity in units of concentration, obtained from inhibition or displacement. A high value points to weaker binding. As for B1, the Ki with TMC-2206 was 1990 nM.

B2: humanized TMC-2206 variant hIgG1/κ VH12.0/VL10.0Q (antibody)
heavy: not shown
light: DFVMTQSPAFLSVTPGEKVTITCSAQSSVNYIHWYQQKPDQAPKKLIYDTSKLASGVPSRFSGSGSGTDYTFTISSLEAEDAATYYCQQWTTNPLTFGQGTKVEIKRTVAAPSVFIFPPSDEQLKSGTASVVCLLNNFYPREAKVQWKVDNALQSGNSQESVTEQDSKDSTYSLSSTLTLSKADYEKHKVYACEVTHQGLSSPVTKSFNRGEC
notes: hVH12.0 γ1 heavy chain and hVL10.0Q light chain; also called VH 12.0 VL 10.0Q (IgG1)
Regarding B2, the “EC50 (nM), cell adhesion to collagen assay” value in assay [1] worked out at 2.2 nM. Further, the Ki in assay [2] is 0.31 nM; in assay [3], 0.27 nM.

B3: humanized TMC-2206 variant hIgG4/κ VH14.0/VL10.0Q (antibody)
heavy: not shown
light: B2 light
notes: hVH14.0 γ4 heavy chain and hVL10.0Q light chain
As to B3, the Ki in assay [3] was 0.36 nM.

B4: TMC-2206 VH D100R variant antibody (antibody, V domains shown)
VH: QVQLKESGPGLVAPSQSLSITCTVSGFSLTNYGIHWVRQPPGKGLEWLGVIWARGFTNYNSALMSRLIITKDNSQSQVFLKMNSLQPDDSATYFCARANRGVYYAMDYWGQGTSVTVSS
VL: QFVLTQSPAFLSASPGEKVTMTCSANSSVNYIHWYQQKSGTSPKKWIYDTSKLASGVPVRFSGSGSGTSYSLTISSMETEDAATYYCQQWTTNPLTFGAGTRVELK
notes: variant murine VH-containing antibody; also called reverse charge mutant D100R
Molecule B4 returned a Ki in assay [4] of 0.41 nM.

B5: humanized TMC-2206 variant hVH1.0/hVL1.0 (antibody, human IgG1, V domains shown)
VH: QVQLQESGPGLVKPSETLSLTCTVSGFSLTNYGIHWVRQPPGKGLEWLGVIWARGFTNYNSALMSRLTISKDNSKNQVSLKLSSVTAADTAVYFCARANDGVYYAMDYWGQGTLVTVSS
VL: QFVLTQSPAFLSVTPGEKVTITCSANSSVNYIHWYQQKPDQAPKKWIYDTSKLASGVPSRFSGSGSGTDYTFTISSLEAEDAATYYCQQWTTNPLTFGQGTKVEIK
notes: human IgG1/κ constant regions; also called humanized prototype; first humanized prototype
As for B5, the Ki in assay [5] amounted to 0.33 nM; in assay [4], 0.32 nM; in assay [2], 0.27 nM. The “EC50, inhibition of cell adhesion to collagen” value in assay [6] was determined as 1.5 nM.

B6: humanized TMC-2206 variant hVH12.0/hVL10.0 (antibody, human IgG1, V domains shown)
VH: B5 VH with V37I, F94Y
VL: B5 VL with Q1D, L4M, W46L
notes: human IgG1/κ constant regions; also called VH 12.0 VL 10.0
In assay [2], B6 displayed a Ki of 0.29 nM.

B7: humanized TMC-2206 variant hVH1.0/hVL9.0 (antibody, V domains shown)
VH: B5 VH
VL: B5 VL with Y48K
notes: human IgG1/κ; also called change of L49 to the human lysine
For the molecule B7, the “fold decrease in potency as measured by Ki” value in assay [4] was determined as 3.3 fold.

B8: humanized TMC-2206 variant hVH1.0/hVL4.0 (antibody, human IgG1, V domains shown)
VH: B5 VH
VL: B5 VL with Q1D, F2V, L4M
notes: human IgG1/κ constant regions
B8: in assay [5], the affinity corresponds to a Ki of 1.4 nM and the “fold shift in potency compared to the hVH1.0, hVL1.0 variant” value (shortened to “fold shift in potency”) is 4.2 fold.

B9: humanized TMC-2206 variant hVH4.0/hVL3.0 (antibody, human IgG1, V domains shown)
VH: B5 VH with V37I, L48I
VL: B5 VL with K45L, W46L
notes: human IgG1/κ constant regions
On to B9, for which, in assay [5], the Ki worked out at 1.34 nM and the “fold shift in potency” value is 4.2 fold.

B10: humanized TMC-2206 variant hVH11.0, hVL1.0 (antibody, human IgG1, V domains shown)
VH: B5 VH with L48I, V78F
VL: B5 VL
notes: human IgG1/κ constant regions
B10: in assay [4], the “fold decrease in potency compared to the hVH1.0, hVL1.0 variant (Ki)” value came out at 70 fold.

B11: humanized TMC-2206 variant hVH14.0/hVL10.0 (antibody, human IgG1, V domains shown)
VH: B5 VH with V37I, L67V, F94Y
VL: B5 VL with Q1D, L4M, W46L
notes: human IgG1/κ constant regions; also called VH 14.0 VL 10.0
The molecule B11 showed an inhibitory constant (Ki) in assay [2] of 0.32 nM.

B12: humanized TMC-2206 variant hVH3.0/hVL4.0 (antibody, human IgG1, V domains shown)
VH: B5 VH with L67V, K71V, N73T, V78F
VL: B5 VL with Q1D, F2V, L4M
notes: human IgG1/κ constant regions
Consider B12, for which, in assay [5], the Ki amounted to 118 nM and the “fold shift in potency” value came to 358 fold.

B13: humanized TMC-2206 variant hVH1.0/hVL1.0Q (antibody, human IgG1, V domains shown)
VH: B5 VH
VL: B5 VL with N26Q
notes: human IgG1/κ constant regions; also called VH 1.0 VL 1.0Q
With B13, the Ki in assay [2] amounted to 0.35 nM.

B14: humanized TMC-2206 variant hVH4.0/hVL4.0 (antibody, human IgG1, V domains shown)
VH: B5 VH with V37I, L48I
VL: B5 VL with Q1D, F2V, L4M
notes: human IgG1/κ constant regions
On to B14, for which, in assay [5], the Ki was determined as 2.6 nM and the “fold shift in potency” value stood at 7.9 fold.

B15: humanized TMC-2206 variant hVH10.0/hVL1.0 (antibody, V domains shown)
VH: B5 VH with N73T
VL: B5 VL
notes: human IgG1/κ; also called change to Thr-H73
In the case of B15, the “fold decrease as measured by Ki” value in assay [4] stood at 1.6 fold.

B16: humanized TMC-2206 variant hVH14.0/hVL12.0Q (antibody, human IgG1, V domains shown)
VH: B5 VH with V37I, L67V, F94Y
VL: B5 VL with Q1D, L4M, N26Q, W46L, Y70F
notes: human IgG1/κ constant regions; also called VH 14.0 VL 12.0Q
As to B16, the affinity in assay [2] corresponds to a Ki of 0.33 nM.

B17: humanized TMC-2206 variant hVH3.0/hVL3.0 (antibody, human IgG1, V domains shown)
VH: B5 VH with L67V, K71V, N73T, V78F
VL: B5 VL with K45L, W46L
notes: human IgG1/κ constant regions
Turning to B17, in assay [5], affinity was put at a Ki of 202 nM and the “fold shift in potency” value was determined as 631 fold.

B18: humanized TMC-2206 variant hVH3.0/hVL1.0 (antibody, human IgG1, V domains shown)
VH: B5 VH with L67V, K71V, N73T, V78F
VL: B5 VL
notes: human IgG1/κ constant regions
On to B18, for which, in assay [5], the Ki was found to be 12 nM and the “fold shift in potency” value came to 36 fold.

B19: humanized TMC-2206 variant hVH9.0, hVL1.0 (antibody, human IgG1, V domains shown)
VH: B5 VH with L48I, K71V
VL: B5 VL
notes: human IgG1/κ constant regions
Regarding B19, in assay [4], the “fold decrease (Ki)” value was determined as 6.4 fold.

B20: humanized TMC-2206 variant hVH4.0/hVL1.0 (antibody, human IgG1, V domains shown)
VH: B5 VH with V37I, L48I
VL: B5 VL
notes: human IgG1/κ constant regions
On to B20, for which, in assay [5], the Ki is 0.44 nM and the “fold shift in potency” value worked out at 1.3 fold.

B21: humanized TMC-2206 variant hVH1.0/hVL3.0 (antibody, human IgG1, V domains shown)
VH: B5 VH
VL: B5 VL with K45L, W46L
notes: human IgG1/κ constant regions; also called VH1.0/VL3.0
As to B21, in assay [5], the affinity corresponds to a Ki of 0.64 nM and the “fold shift in potency” value was determined as 1.9 fold.

B22: humanized TMC-2206 variant hVH14.0/hVL12.0 (antibody, human IgG1, V domains shown)
VH: B5 VH with V37I, L67V, F94Y
VL: B5 VL with Q1D, L4M, W46L, Y70F
notes: human IgG1/κ constant regions; also called VH 14.0 VL 12.0
The molecule B22 showed a Ki in assay [2] of 0.38 nM.
